Laboratory results published in patent publication US20190169286A1 (Chugai, published 2019).

Experiments:
human FcRn = target: T1, human FcRn (human, UniProt P55899 24-290; P61769 21-119, limits assumed); assay: SPR Biacore T100, Ab captured on Protein L, FcRn analyte, pH 6.0, 25C
T1 construct: also called hFcRn
Method: Antibodies containing VH3-IgG1m or an above-mentioned variant as the heavy chain and L(WT) (SEQ ID NO:1) as the light chain were produced by the method of Reference Example 2, and the binding activity toward human FcRn was evaluated as follows.
Kinetic analyses of human FcRn and each of the antibodies were carried out using BIACORE T100 (GE Healthcare). […] For the running buffer, 50 mM sodium phosphate, 150 mM NaCl, and 0.05% (w/v) Tween 20 at pH 6.0 was used, and the respective buffer was also used to dilute FcRn. […] All measurements were carried out at 25° C.

human IL-8 [1] = target: T2, human IL-8 (human, UniProt P10145 23-99, limits assumed); assay: SPR Biacore T200, Protein A/G capture, pH 5.8, 37C
T2 construct: also called hIL-8; hIL8
T2 sequence (P10145 23-99 limits assumed): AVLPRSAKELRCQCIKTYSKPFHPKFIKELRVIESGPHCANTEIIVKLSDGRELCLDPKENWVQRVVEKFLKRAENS
Method: (§2) An appropriate amount of Protein A/G (PIERCE) was immobilized onto the Sensor chip CM4 (GE Healthcare) by the amine coupling method and the antibodies of interest were captured. […] To regenerate the sensor chip, 25 mM NaOH and 10 mM glycine-HCl (pH 1.5) were used. […] The BIACORE T200 Evaluation Software (GE Healthcare) was used to calculate each parameter.

human IL-8 [2] = target: T2, human IL-8; assay: SPR Biacore T200, Protein A/G capture, IL-8 analyte, pH 7.4, 37C
Method: (§3) An appropriate amount of Protein A/G (PIERCE) was immobilized onto Sensor chip CM4 (GE Healthcare) by the amine coupling method and the antibodies of interest was captured. […] To regenerate the sensor chip, 10 mM glycine-HCl at pH 1.5 was used. All measurements were carried out at 37° C. […] The BIACORE T200 Evaluation Software (GE Healthcare) was used to calculate each parameter.

human IL-8 [3] = target: T2, human IL-8; assay: SPR Biacore T200, Protein A/G capture, pH 7.4, 40C
Method: as §2

human IL-8 [4] = target: T2, human IL-8; assay: SPR Biacore T200, Protein A/G capture, pH 5.8, 37C; remark: listed apart in the source
Method: as §2

human IL-8 [5] = target: T2, human IL-8; assay: SPR Biacore T200, Protein A/G capture, IL-8 analyte, pH 7.4, 37C; remark: listed apart in the source
Method: as §3

human IL-8 [6] = target: T2, human IL-8; assay: SPR Biacore T200, Protein A/G capture, IL-8 analyte, pH 5.8, 37C
Method: as §3

human IL-8 [7] = target: T2, human IL-8; assay: as above; remark: listed apart in the source
Method: as §3

human IL-8 [8] = target: T2, human IL-8; assay: SPR Biacore T200, 37C; ratio between pH 7.4 and pH 5.8
Method: as §3

human IL-8 [9] = target: T2, human IL-8; assay: SPR IL-8 binding level per 1000 RU captured Ab, pH 7.4, 40C; 1 week 50C in PBS vs initial
[10] = target: T3, soluble cynomolgus monkey FcγRIIIa (His-tagged) (cynomolgus monkey, UniProt Q8SPW2 17-208); assay: SPR (Biacore T200), antibody captured on rProtein L on a CM4 chip, soluble His-tagged FcγR injected, HBS-EP+, 20 °C
T3 construct: also called cynoFcγRIIIa; not shown: His tag
T3 sequence (Q8SPW2 17-208 limits assumed): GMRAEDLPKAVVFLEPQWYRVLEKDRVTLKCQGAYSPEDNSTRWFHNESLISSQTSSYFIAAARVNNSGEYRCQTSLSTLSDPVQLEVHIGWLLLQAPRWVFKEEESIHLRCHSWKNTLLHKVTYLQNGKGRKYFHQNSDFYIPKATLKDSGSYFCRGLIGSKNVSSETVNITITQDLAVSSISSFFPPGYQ
Method: (§1) Soluble FcγRIa and FcγRIIIa in both human and cynomolgus monkey were produced in the form of His-tagged molecules by methods known to those of ordinary skill in the art. […] Next, soluble FcγRIa or FcγRIIIa was injected with a running buffer (used as a reference solution), and was made to interact with the antibodies captured onto the sensor chip. HBS-EP+(GE Healthcare) was used as the running buffer, and HBS-EP+ was also used to dilute the soluble FcγRIa or FcγRIIIa. […] All measurements were carried out at 20° C.

[11] = target: T4, soluble human FcγRIIIa (His-tagged) (human, UniProt P08637 17-208); assay: as above
T4 construct: also called hFcγRIIIa; not shown: His tag
T4 sequence (P08637 17-208 limits assumed): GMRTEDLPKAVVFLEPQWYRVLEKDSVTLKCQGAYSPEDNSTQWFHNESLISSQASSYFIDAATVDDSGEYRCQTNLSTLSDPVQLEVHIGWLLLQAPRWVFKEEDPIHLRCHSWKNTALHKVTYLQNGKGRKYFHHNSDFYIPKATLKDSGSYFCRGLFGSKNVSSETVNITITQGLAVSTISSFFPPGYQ
Method: as §1

[12] = target: T5, soluble human FcγRIa (His-tagged) (human, UniProt P12314 16-292, limits assumed); assay: as above
T5 construct: also called hFcγRIa; not shown: His tag
T5 sequence (P12314 16-292 limits assumed): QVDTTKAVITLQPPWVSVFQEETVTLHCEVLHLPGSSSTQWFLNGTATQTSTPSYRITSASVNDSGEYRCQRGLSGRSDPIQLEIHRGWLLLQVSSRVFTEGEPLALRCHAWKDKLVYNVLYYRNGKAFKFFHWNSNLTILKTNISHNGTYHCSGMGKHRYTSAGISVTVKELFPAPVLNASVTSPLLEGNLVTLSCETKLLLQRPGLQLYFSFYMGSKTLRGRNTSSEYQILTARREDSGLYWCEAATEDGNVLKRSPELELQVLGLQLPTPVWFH
Method: as §1

T1 sequence (P55899 24-290 limits assumed, chain 1 of 2): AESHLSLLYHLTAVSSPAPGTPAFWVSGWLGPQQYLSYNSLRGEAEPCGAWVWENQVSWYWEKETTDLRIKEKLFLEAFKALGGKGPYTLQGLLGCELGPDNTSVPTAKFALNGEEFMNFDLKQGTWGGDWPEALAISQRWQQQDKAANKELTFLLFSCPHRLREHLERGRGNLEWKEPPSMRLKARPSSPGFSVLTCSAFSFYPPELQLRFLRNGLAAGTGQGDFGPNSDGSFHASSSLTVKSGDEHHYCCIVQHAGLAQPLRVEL
T1 sequence (P61769 21-119 limits assumed, chain 2 of 2): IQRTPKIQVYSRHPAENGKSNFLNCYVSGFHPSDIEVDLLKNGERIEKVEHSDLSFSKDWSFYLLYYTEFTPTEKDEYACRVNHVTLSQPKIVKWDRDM

B1: VH3-F1927m / L(WT) (antibody)
heavy: QVQLQESGPGLVKPSETLSLTCAVSGHSISHDHAWSWVRQPPGEGLEWIGFISYSGITNYNPSLQGRVTISRDNSKNTLYLQMNSLRAEDTAVYYCARSLARTTAMDYWGEGTLVTVSSASTKGPSVFPLAPSSKSTSGGTAALGCLVKDYFPEPVTVSWNSGALTSGVHTFPAVLQSSGLYSLSSVVTVPSSSLGTQTYICNVNHKPSNTKVDKKVEPKSCDKTHTCPPCPAPELLGGPSVFLFPPKPKDTLMISRTPEVTCVVVDVSHEDPEVKFNWYVDGVEVHNAKTKPREEQYNSTYRVVSVLTVLHQDWLNGKEYKCKVSNKALPAPIEKTISKAKGQPREPQVYTLPPSREEMTKNQVSLTCLVKGFYPSDIAVEWESNGQPENNYKTTPPVLDSDGSFFLYSKLTVDKSRWQQGNVFSCSVLHEALHAHYTRKELSLSP
light: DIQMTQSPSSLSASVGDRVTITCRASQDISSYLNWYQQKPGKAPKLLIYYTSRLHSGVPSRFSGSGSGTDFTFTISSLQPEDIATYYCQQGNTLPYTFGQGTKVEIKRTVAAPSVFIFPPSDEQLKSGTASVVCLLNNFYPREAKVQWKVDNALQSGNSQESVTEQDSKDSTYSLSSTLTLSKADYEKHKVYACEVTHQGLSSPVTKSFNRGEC
notes: Fc: M428L/N434A/Q438R/S440E
With B1 the Kd (human FcRn) was 125 nM.

B2: VH3-YTE / L(WT) (antibody, human IgG1, kappa)
heavy: QVQLQESGPGLVKPSETLSLTCAVSGHSISHDHAWSWVRQPPGEGLEWIGFISYSGITNYNPSLQGRVTISRDNSKNTLYLQMNSLRAEDTAVYYCARSLARTTAMDYWGEGTLVTVSSASTKGPSVFPLAPSSKSTSGGTAALGCLVKDYFPEPVTVSWNSGALTSGVHTFPAVLQSSGLYSLSSVVTVPSSSLGTQTYICNVNHKPSNTKVDKKVEPKSCDKTHTCPPCPAPELLGGPSVFLFPPKPKDTLYITREPEVTCVVVDVSHEDPEVKFNWYVDGVEVHNAKTKPREEQYNSTYRVVSVLTVLHQDWLNGKEYKCKVSNKALPAPIEKTISKAKGQPREPQVYTLPPSREEMTKNQVSLTCLVKGFYPSDIAVEWESNGQPENNYKTTPPVLDSDGSFFLYSKLTVDKSRWQQGNVFSCSVMHEALHNHYTQKSLSLSP
light: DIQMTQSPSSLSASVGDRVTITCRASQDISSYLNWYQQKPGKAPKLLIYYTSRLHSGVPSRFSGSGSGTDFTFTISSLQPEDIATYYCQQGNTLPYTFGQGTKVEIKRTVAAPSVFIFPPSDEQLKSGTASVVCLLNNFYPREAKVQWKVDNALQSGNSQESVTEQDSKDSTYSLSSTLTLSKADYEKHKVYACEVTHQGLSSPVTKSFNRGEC
notes: Fc: M252Y/S254T/T256E
In the case of B2, the Kd (human FcRn) is reported as 148 nM.

B3: H89/L118 (H89-IgG1 / L118-k0MT) (antibody, V domains shown)
VH: QVQLVESGGGLVQPGGSLRLSCAASGFTFSDYYLSWVRQAPGKGLEWVGLIRNKANGYTREYSASVKGRFTISRDDSKNSLYLQMSSLKTEDTAVYYCARENHRYDVELAYWGQGTLVTVSS
VL: DIQMTQSPSSLSASVGDRVTITCRASEIIYSYLAWYQQKPGKAPKLLIYHAKTHADGVPSRFSGSGSGTDFTFTISSLQPEDIATYYCKHHFGFPRTFGQGTKVEIKR
notes: also called H0089/L0118
In the case of B3, the koff (human IL-8 [1]) is reported as 0.00628 s⁻¹, the kon (human IL-8 [1]) is reported as 129000 M⁻¹ s⁻¹ and the koff (human IL-8 [2]) is reported as 0.000114 s⁻¹. For the same binder, the kon (human IL-8 [2]) was 945000 M⁻¹ s⁻¹, the koff (human IL-8 [3]) was 0.000129 s⁻¹ and the kon (human IL-8 [3]) was 751000 M⁻¹ s⁻¹. It also gave a koff (human IL-8 [4]) of 0.0063 s⁻¹, a koff (human IL-8 [5]) of 2.13e-05 s⁻¹ and a kon (human IL-8 [5]) of 580000 M⁻¹ s⁻¹. The koff (human IL-8 [6]) was 0.0039 s⁻¹, the kon (human IL-8 [6]) was 123000 M⁻¹ s⁻¹ and the koff (human IL-8 [7]) was 0.00384 s⁻¹. It also gave a kon (human IL-8 [7]) of 179000 M⁻¹ s⁻¹.

B4: Hr9/L16 (antibody, human IgG1, kappa, name in Kabat numbering, V domains shown)
VH: QVQLVESGGGLVQPGGSLRLSCAASGFTFSDYYLSWVRQAPGKGLEWVGLIRNKANGYTREYSASVKGRFTISRDDSKNSLYLQMSSLKTEDTAVYYCARENYRYDVELAYWGQGTLVTVSS
VL: DIQMTQSPSSLSASVGDRVTITCRASEIIYSYLAWYQQKPGKAPKLLIYNAKTHADGVPSRFSGSGSGTDFTFTISSLQPEDIATYYCQHHFGFPRTFGQGTKVEIKR
notes: WS4L-k0MT with L54H
In the case of B4, the koff (human IL-8 [5]) is reported as 9.57e-05 s⁻¹, the kon (human IL-8 [5]) is reported as 890000 M⁻¹ s⁻¹ and the “KD Ratio (pH 5.8/pH 7.4)” value (human IL-8 [8]) is reported as 46.8. The “Koff Ratio (pH 5.8/pH 7.4)” value (human IL-8 [8]) was 2.1, the “kon Ratio (pH 7.4/pH 5.8)” value (human IL-8 [8]) was 22.8 and the koff (human IL-8 [7]) was 0.000197 s⁻¹. It also gave a kon (human IL-8 [7]) of 39100 M⁻¹ s⁻¹.

B5: H1009/L395 (H1009-IgG1m / L395-k0MT) (antibody)
heavy: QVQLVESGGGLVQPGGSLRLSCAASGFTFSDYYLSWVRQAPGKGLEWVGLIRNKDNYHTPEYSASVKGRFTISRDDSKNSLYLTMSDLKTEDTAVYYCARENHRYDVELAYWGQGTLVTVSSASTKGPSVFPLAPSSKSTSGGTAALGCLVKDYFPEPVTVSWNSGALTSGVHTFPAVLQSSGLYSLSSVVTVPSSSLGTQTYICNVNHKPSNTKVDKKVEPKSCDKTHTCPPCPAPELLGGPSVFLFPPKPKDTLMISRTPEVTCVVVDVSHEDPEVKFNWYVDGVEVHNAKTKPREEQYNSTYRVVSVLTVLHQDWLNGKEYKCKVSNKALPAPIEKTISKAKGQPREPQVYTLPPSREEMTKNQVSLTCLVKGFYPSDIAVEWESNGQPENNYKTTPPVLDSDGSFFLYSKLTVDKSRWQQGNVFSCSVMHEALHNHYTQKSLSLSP
light: DIQMTQSPSSLSASVGDRVTITCRASEIIYSYLAWYQQKPGKAPKLLIYKAKTHADGVPSRFSGSGSGTDFTFTISSLQPEDIATYYCKHHFGFPRTFGQGTKVEIKRTVAAPSVFIFPPSDEQLKSGTASVVCLLNNFYPREAKVQWKVDNALQSGNSQESVTEQDSKDSTYSLSSTLTLSKADYEKHKVYACEVTHQGLSSPVTKSFNRGEC
notes: also called H1009/L0395
B5 was tested, and the koff (human IL-8 [4]) was 0.01 s⁻¹ and the “Ratio of IL-8 Binding Amount (Thermal Acceleration/Initial)” value (human IL-8 [9]) was 0.64.

B6: H1009/L395-F1886s (H1009-F1886s / L395-k0MT) (antibody)
heavy: QVQLVESGGGLVQPGGSLRLSCAASGFTFSDYYLSWVRQAPGKGLEWVGLIRNKDNYHTPEYSASVKGRFTISRDDSKNSLYLTMSDLKTEDTAVYYCARENHRYDVELAYWGQGTLVTVSSASTKGPSVFPLAPSSKSTSGGTAALGCLVKDYFPEPVTVSWNSGALTSGVHTFPAVLQSSGLYSLSSVVTVPSSSLGTQTYICNVNHKPSNTKVDKKVEPKSCDKTHTCPPCPAPELRRGPKVFLFPPKPKDTLMISRTPEVTCVVVDVSHEDPEVKFNWYVDGVEVHNAKTKPREEQYNSTYRVVSVLTVLHQDWLNGKEYKCKVSNKALPAPIEKTISKAKGQPREPQVYTLPPSREEMTKNQVSLTCLVKGFYPSDIAVEWESNGQPENNYKTTPPVLDSDGSFFLYSKLTVDKSRWQQGNVFSCSVLHEALHAHTTRKELSLSP
light: DIQMTQSPSSLSASVGDRVTITCRASEIIYSYLAWYQQKPGKAPKLLIYKAKTHADGVPSRFSGSGSGTDFTFTISSLQPEDIATYYCKHHFGFPRTFGQGTKVEIKRTVAAPSVFIFPPSDEQLKSGTASVVCLLNNFYPREAKVQWKVDNALQSGNSQESVTEQDSKDSTYSLSSTLTLSKADYEKHKVYACEVTHQGLSSPVTKSFNRGEC
B6: no binding (tested: not given) [10]; no binding (tested: not given) [11]; no binding (tested: not given) [12].

B7: H1009/L395-F1886m (antibody)
heavy: QVQLVESGGGLVQPGGSLRLSCAASGFTFSDYYLSWVRQAPGKGLEWVGLIRNKDNYHTPEYSASVKGRFTISRDDSKNSLYLTMSDLKTEDTAVYYCARENHRYDVELAYWGQGTLVTVSSASTKGPSVFPLAPSSKSTSGGTAALGCLVKDYFPEPVTVSWNSGALTSGVHTFPAVLQSSGLYSLSSVVTVPSSSLGTQTYICNVNHKPSNTKVDKKVEPKSCDKTHTCPPCPAPELLGGPSVFLFPPKPKDTLMISRTPEVTCVVVDVSHEDPEVKFNWYVDGVEVHNAKTKPREEQYNSTYRVVSVLTVLHQDWLNGKEYKCKVSNKALPAPIEKTISKAKGQPREPQVYTLPPSREEMTKNQVSLTCLVKGFYPSDIAVEWESNGQPENNYKTTPPVLDSDGSFFLYSKLTVDKSRWQQGNVFSCSVLHEALHAHTTRKELSLSP
light: DIQMTQSPSSLSASVGDRVTITCRASEIIYSYLAWYQQKPGKAPKLLIYKAKTHADGVPSRFSGSGSGTDFTFTISSLQPEDIATYYCKHHFGFPRTFGQGTKVEIKRTVAAPSVFIFPPSDEQLKSGTASVVCLLNNFYPREAKVQWKVDNALQSGNSQESVTEQDSKDSTYSLSSTLTLSKADYEKHKVYACEVTHQGLSSPVTKSFNRGEC
B7: binds [10]; binds [12].

B8: H1009/L395-F1974m (H1009-F1974m / L395-k0MT) (antibody)
heavy: QVQLVESGGGLVQPGGSLRLSCAASGFTFSDYYLSWVRQAPGKGLEWVGLIRNKDNYHTPEYSASVKGRFTISRDDSKNSLYLTMSDLKTEDTAVYYCARENHRYDVELAYWGQGTLVTVSSASTKGPSVFPLAPSSKSTSGGTAALGCLVKDYFPEPVTVSWNSGALTSGVHTFPAVLQSSGLYSLSSVVTVPSSSLGTQTYICNVNHKPSNTKVDKKVEPKSCDKTHTCPPCPAPELRRGPSVFLFPPKPKDTLMISRTPEVTCVVVDVSHEDPEVKFNWYVDGVEVHNAKTKPREEQYNSTYRVVSVLTVLHQDWLNGKEYKCKVSNKGLPSSIEKTISKAKGQPREPQVYTLPPSREEMTKNQVSLTCLVKGFYPSDIAVEWESNGQPENNYKTTPPVLDSDGSFFLYSKLTVDKSRWQQGNVFSCSVLHEALHAHTTRKELSLSP
light: DIQMTQSPSSLSASVGDRVTITCRASEIIYSYLAWYQQKPGKAPKLLIYKAKTHADGVPSRFSGSGSGTDFTFTISSLQPEDIATYYCKHHFGFPRTFGQGTKVEIKRTVAAPSVFIFPPSDEQLKSGTASVVCLLNNFYPREAKVQWKVDNALQSGNSQESVTEQDSKDSTYSLSSTLTLSKADYEKHKVYACEVTHQGLSSPVTKSFNRGEC
notes: also called antibody H1009/L395-F1974m
B8: no binding (tested: not given) [10]; no binding (tested: not given) [11]; no binding (tested: not given) [12].
